# Read-outs that look alike come from different tables or passages of the source.
# How the values were obtained:
# [1] = molecular target: T1, biotinylated TTR F87M L110M monomer (Avi_mTTR in vivo biotinylation construct) (human, biotin on the Avi tag (in vivo biotinylation by BirA)); experiment: indirect ELISA, biotinyl-mTTR bound to avidin plates
# T1 construct: also called Biotinyl-Monomer; biotinyl-mTTR
# [2] = molecular target: biotinylated TTR S112I (dimer TTR) (human, UniProt P02766 21-147); experiment: indirect ELISA (Examples 4 and 8): biotinylated TTR on Neutravidin plate, antibody titrated, HRP-conjugated anti-species antibody
# [3] = molecular target: T1, biotinylated TTR F87M L110M monomer …; experiment: indirect ELISA, biotinyl-mTTR bound to avidin plates; remark: listed apart in the source
# [4] = molecular target: T1, biotinylated TTR F87M L110M monomer …; experiment: indirect ELISA, biotinylated mTTR on Neutravidin plate, anti-mouse-HRP
# [5] = molecular target: T2, TTR S112I (dimer TTR, dTTR), untagged (human, UniProt P02766 21-147); experiment: sandwich ELISA (Example 11): antibody coated on the plate, untagged TTR titrated, HRP-conjugated pan-TTR polyclonal antibody for detection
# [6] = molecular target: T3, wild-type TTR (wtTTR), untagged (human, UniProt P02766 21-147); experiment: as above
# [7] = molecular target: T1, biotinylated TTR F87M L110M monomer …; experiment: biolayer interferometry (Octet RED), antibody on anti-mouse biosensor, biotinylated TTR monomer
# [8] = molecular target: TTR F87M L110M (monomeric TTR, mTTR), untagged (human, UniProt P02766 21-147); experiment: sandwich ELISA, antibody coated, untagged mTTR, HRP pan-TTR polyclonal detection
# [9] = molecular target: T2, TTR S112I (dimer TTR, dTTR), untagged; experiment: sandwich ELISA (Example 11): antibody coated on the plate, untagged TTR titrated, HRP-conjugated pan-TTR polyclonal antibody for detection; remark: listed apart in the source
# [10] = molecular target: T3, wild-type TTR (wtTTR), untagged; experiment: as above; remark: listed apart in the source
# [11] = molecular target: T1, biotinylated TTR F87M L110M monomer …; experiment: indirect ELISA, biotinylated mTTR on Neutravidin plate, anti-mouse-HRP; indirect ELISA; biotinylated mTTR captured on Neutravidin plate, anti-mouse-HRP detection
# [12] = molecular target: T2, TTR S112I (dimer TTR, dTTR), untagged; experiment: sandwich ELISA (Example 11): antibody coated on the plate, untagged TTR titrated, HRP-conjugated pan-TTR polyclonal antibody for detection; remark: listed apart in the source
# [13] = molecular target: T3, wild-type TTR (wtTTR), untagged; experiment: as above; remark: listed apart in the source
Binder,EC50 [3],EC50 [4],Kd [7],EC50 [8],also measured
"Humanized Ab1 construct (antibody, V domains shown, also called humanized antibody Ab1; humanized construct for Ab1) VH: QVQLVQSGAEVKKPGASVKVSCKASGYTFTSYWMHWVRQAPGQGLEWIGNIDPSDSETHYAQKFQGRATLTVDKSTSTVYMELSSLRSEDTAVYYCARGRNYWYFDVWGTGTMVTVSS VL: DIQMTQSPSSLSASVGDRVTITCRASESVDNYGISFMNWFQQKPGKPPKLLIYAASNQGSGVPSRFSGSGSGTDFTLTISSLQPEDFATYYCQQSKEVPWTFGGGTKLEIK",0.55 nM,–,–,–,fold weaker than the IgG2 form of Ab1 [1]: ~10 fold; binding result [2]: no binding (tested: about 60 nM antibody)
"murine anti-human monomer TTR antibody Ab3 (antibody, V domains shown, Murine monoclonal antibody; entries are called Mouse Ab3 HC / LC but hold only the variable domains; also called mAb 3; Antibody 3) VH: EVQLQQSGPVLVKPGASVKMSCKASGYTFTDYYMNWVKQSHGKSLEWIGVINPYNGGTSYNQKFKGKATLTVDKSSSTAYMELNSLTSEDSAVYYCARDLTGTGGAMDYWGQGTSVTVSS VL: QIVLTQSPAILSASPGEKVTMTCRASSSVSYMHWYQQKPGSSPKPWIYATSNLASGVPARFSGSGSGTSYSLTISRVEAEDAATYYCQQWSSNPLTFGAGTKLELK",–,14.1 nM,12.1 nM,128 nM,binding result [5]: no binding (tested: about 20 µM TTR); binding result [6]: no binding (tested: about 20 µM TTR)
"murine anti-human monomer TTR antibody Ab6 (antibody, V domains shown, Murine monoclonal antibody; entries are called Mouse Ab6 HC / LC but hold only the variable domains; also called Antibody 6) VH: QVQLQQSGAELMKPGASVKLSCKATGYTFTGYWIEWVKQRPGHGLEWIGEILPGSGSTNYNEKFKGKATFTADTSSNTAYMQLSSLTTEDSAIYYCARLRGSSYPWYFDYWGQGTTLTVSS VL: DIQMTQSPASLSVSVGETVTITCRASENIYSNLAWYQQKQGKSPQLLVYAATNLADGVPSRFSGSGSGTQYSLKINSLQSEDFGSYYCQHFWGTPYTFGGGTKLEIK",–,0.45 nM,11.4 nM,~12.7 nM,–
"murine anti-human monomer TTR antibody Ab2 (antibody, V domains shown, Murine monoclonal antibody; also called mAb 2; Antibody 2) VH: EVKLEQSGGGLVQPGGSMKLSCVASGFTFSNYWMNWVRQSPEKGLEWVAQIRLKSDNYATHYAESVKGRFTISRDDSKSSVYLQMNNLRAEDTGIYYCTGVFTYWGQGTLVTVSA VL: NIVLTQSPASLAVSLGQRATISCRTSESVDSYGNSFMHWYQQKPGQPPKLLIYLASNLESGVPARFSGSGSRTDFTLTIDPVEADDAATYYCQQNNEDPMYTFGGGTKLEIK",0.16 nM,1.45 nM,6.21 nM,98.9 nM,–
"murine anti-human monomer TTR antibody Ab5 (antibody, V domains shown, Murine monoclonal antibody; entries are called Mouse Ab5 HC / LC but hold only the variable domains; also called mAb 5; Antibody 5) VH: EVQLQQSGAELVKPGASVKLSCTASGFNIKDYYMHWVKQRTEQGLEWIGRIDPEDGETKYAPKFQGKATITADTSSNTAYLQLSSLTSEDTAVYYCALLWLRRGRGYWGQGTTLTVSS VL: DIQMTQSPSSLSASLGERVSLTCRASQEISGYLSWLQQKPDGTIKRLIYAASTLDSGVPKRFSGSRSGSDYSLTISSLESEDFADYYCLQYASYPPTFGAGTKLELK",–,0.2 nM,1.31 nM,~14.2 nM,binding result [9]: no binding (tested: about 20 µM TTR); binding result [10]: no binding (tested: about 20 µM TTR)
"murine anti-human monomer TTR antibody Ab7 (antibody, V domains shown, Murine monoclonal antibody; entries are called Mouse Ab7 HC / LC but hold only the variable domains; also called Antibody 7) VH: EVQLQQSGAELVKPGASVKLSCTASGFNIKDYYMHWVKQRTEQGLEWIGRIDPEDGETKYAPKFQGKATITADTSSNTAYLQLSSLTSEDTAVYYCARGKTPFAYWGQGTLVTVSA VL: DIQMTQSPSSLSASLGERVSLTCRASQEISGYLSWLQQKPDGTIKRLIYAASTLDFGVPKRFSGSRFGSDYSLTISSLESEDFADYYCLQYDSYPFTFGSGTKLEIK",–,–,–,~43.2 nM,EC50 [11]: 4.22 nM; binding result [12]: no binding (tested: about 20 µM TTR); binding result [13]: no binding (tested: about 20 µM TTR)

# From patent US20250019425A1 (ADRX, published 2025)
